The chains are these.
B1: YfiR(C71S) (domain or fragment)
chain: DDARTSIEQRSNAVSQVLLGIFSYVRWPKEPAVLQLSVVGPTEYADGLLRGMVQANGRRVHAERRAVDNPDLGTLCNVIYLGVVDERERQQVFRSLAGHPVLSISERGTECSVGSMFCLNVGGPRITFEANLDSIARSGVRVHPSVLKLARRQATP
notes: YfiR (PA1121) of Pseudomonas aeruginosa PAO1, residues 35-190, with C71S; the methods describe only the wild-type construct; also called C71S mutant of YfiR; not shown: Trx, N-terminal, cleaved
B2: YfiR (residues 35–190) (domain or fragment)
chain: B1 chain with S37C
notes: YfiR (PA1121) of Pseudomonas aeruginosa PAO1, residues 35-190; the N-terminal 34 residues (signal peptide) left out; cloned in pET-32a; purified on Ni-NTA, tag removed with PPase; also called PA1121; wild-type YfiR; source: E. coli, purified (Ni-NTA, ResourceS, Superdex75); not shown: Trx, N-terminal, cleaved
B3: YfiB(27–168) (domain or fragment)
chain: QTKPPQTGLSAEQIAVLQEQGFELRDEGWEFGMSSKVLFGNNLDRLNPDSRNTLTKIARALLAVDIDKVRLEGHTDNYGDEGYNQKLSERRAESVAAVFREAGMPAANIEVRGLGMSKPVADNKTRAGRSENRRVAIIVPAE
notes: signal peptide 1-25 and lipid acceptor Cys26 left out; cloned in pGEX-6p-1; GST removed with PPase on the resin; also called PA1119; longer YfiB construct; source: E. coli, purified (GST column, Hitrap Q, Superdex75)
B4: YfiB(59–168) (domain or fragment)
chain: MSSKVLFGNNLDRLNPDSRNTLTKIARALLAVDIDKVRLEGHTDNYGDEGYNQKLSERRAESVAAVFREAGMPAANIEVRGLGMSKPVADNKTRAGRSENRRVAIIVPAE
notes: cloned in pET-32a; tag removed with PPase on the resin; also called shorter YfiB construct; source: E. coli, purified (Ni-NTA, Hitrap S, Superdex75)

In data set [1] the target is YfiB W55L (Pseudomonas aeruginosa PAO1) (UniProt Q9I4L6). Briefly: AUC; single purified proteins, 400 μL at 3 mg ml^-1 in 20 mM Tris-HCl, 200 mM NaCl; 42,000 rpm, 277 K, interference detection; SEDFIT.
Data set [2] concerns the molecule itself. Briefly: crystal structure; YfiR(C71S)-YfiB(59–168) complex, 1.97 Å; proteins mixed 1:1; 0.1 M HEPES pH 7.5, 1.8 M ammonium sulfate, 293 K.
Data set [3] deals with the molecule itself. Briefly: AUC; YfiB-YfiR complex at 10 mg ml^-1 in 20 mM Tris-HCl, 200 mM NaCl; 42,000 rpm, 277 K, interference detection; SEDFIT.
Data set [4] deals with the molecule itself. Description: AUC; single purified proteins, 400 μL at 3 mg ml^-1 in 20 mM Tris-HCl, 200 mM NaCl; 42,000 rpm, 277 K, interference detection; SEDFIT.
The data set “YfiR (residues 35–190)” concerns the target B2. Briefly: AUC; YfiB-YfiR complex at 10 mg ml^-1 in 20 mM Tris-HCl, 200 mM NaCl; 42,000 rpm, 277 K, interference detection; SEDFIT. The following applies: both partners purified.
The data set “YfiR(C71S)” has as its target B1. Briefly: crystal structure; YfiR(C71S)-YfiB(59–168) complex, 1.97 Å; proteins mixed 1:1; 0.1 M HEPES pH 7.5, 1.8 M ammonium sulfate, 293 K. The following applies: both partners purified.

Positions count from the first letter of the chain named. Names and notes keep the numbering of the source.

Turning to “YfiB W55L (from UniProt Q9I4L6 27-168) (domain or fragment)”, the stoichiometry N (usually a count of units in the complex or per binding partner) in data set [1] stood at 2.
Consider B1, for which, in data set [2], the binding result is listed as “binds”.
On to B2, for which the “stoichiometry N” value in data set [3] is 2.
As to B3, the “stoichiometry N” value in data set [4] was determined as 2.
As for B4, in the data set with YfiR (residues 35–190), the “stoichiometry N” value was 1 YfiB per YfiR (2:2). The binding result with YfiR(C71S) is given as “binds”.

The values are drawn from PMC4655355, “Structural insights into YfiR sequestering by YfiB in Pseudomonas aeruginosa PAO1” (Scientific Reports, 2015).
